Experimental data as given in patent publication US20160274129.
Substitutions are numbered along the chain they refer to. Values joined by “and” are separate entries in the source; they are usually repeats but may differ in a detail not shown here. Identical values can stand only once.

B1: CFP-T7 (protein)
chain: MTSNRADTRVIVVGGGGTIGSSTALHLVRSGYAPANITVLDTFEIPSAQSAGHDLNKIMGIRLRNKVDLQMSLEARQMWKEDELFQPFFHNTGRMDCEHTPEGIEDLKKQYQALHDAGAGLEKTHAWLDNEDEILSKMPLLQRDQIQGWKAIWSQDGGWLAAAKAINAIGQFLKERGVKFGFGGAGSFKQPLFDDEGTTCIGVETADGTKYYADKVVLAAGAWSPTLVDLEDQCCSKAWVYAHIQLTPEEAAEYKGVPVVYNGEFGFFFEPDEFGVIKVCDEFPGFSRFKEHQPYGAPSPKRISVPRSHAKHPTDTYPDASEVSIKKAIATFLPRFQDKELFNRALCWCTDTADAALLMCEHPKWKNFILATGDSGHSFKILPNVGKYVVELIEGRLPEEMAYQWRWRPGGDALKSRRAAPPKDLADMPGWKHDPKL
B2: CFP-T7-H35 (protein)
chain: B1 chain with R62D, L63H, E102K, D106K, Q110L, A113K, A355S
B3: FAOAo2 (protein)
chain: MTVTKSSSILIIGAGTWGASTALHLGRRGYTNVTVLDPYTVPSAISAGNDVNKIISSGQYSNKKDEIEVNEILAEEAFKGWTTDPLFKPYYHDTGVVMSACSSAGLDRLGIRVRPEEEPDVSEVTKPEHFRQLAPAVLKGNFPGWRGYHIRSNAGWAHARNALVAAIREAEKLGVKFVTGTQGRVITLIFENNDVKGAVTADGKIWRAEQTVLCAGANAAQFLDFKDQLRPTAWTLAHIRLKPEERALYKNLPVIFNIEKGFFFEPDEERGEIKICDEHPGYTNMVKSADGHLTSLPFEKTQIPKESEARVRALLSETMPQLADRPFSFARVCWCADTANREFIIDRHPEHPSLVLGCGASGRGFKYLPSIGNLIVDAIEDKVPEKVHKLTRWSPDIAVDRKWRDTLGRFGGPNRVMDFHDVKEWTNVQNKDTAKL
B4: CFP-T7-H21 (protein)
chain: B1 chain with R62D, D106K, Q110L, A113R
B5: CFP-T7-H29 (protein)
chain: B1 chain with R62D, L63H, D106K, Q110L, A113K, A419K
B6: CFP-T7-H27 (protein)
chain: B1 chain with R62D, L63K, D106K, Q110L, A113K
B7: CFP-T7-H28 (protein)
chain: B1 chain with R62D, L63H, E102K, D106K, Q110L, A113K
B8: CFP-T7-62D (protein)
chain: B1 chain with R62D
B9: CFP-T7-H20 (protein)
chain: B1 chain with R62D, D106K, Q110L, A113K
B10: CFP-T7-H26 (protein)
chain: B1 chain with R62D, L63H, D106K, Q110L, A113K

Target: T1, α-fructosyl-valyl-histidyl-leucine
T1 chain: VHL
With B1 the Specific activity (U/mg), 1 mM αF3P, purified enzyme was 0 U/mg. For B2, the Specific activity (U/mg), 1 mM αF3P, purified enzyme was 1.24 U/mg.

Target: T2, α-fructosyl-valyl-histidyl-leucyl-threonyl-proryl-glutamyl-glutamyl-lysyl-seryl-alanyl-valyl-threonyl-alanyl-leucyl-tryptophyl-glycine
T2 chain: VHLTPEEKSAVTALWG
For B1, the Specific activity (U/mg), 1 mM αF16P, purified enzyme was 0 U/mg. B2 gave a Specific activity (U/mg), 1 mM αF16P, purified enzyme of 0.247 U/mg.

Target: T3, α-fructosyl-valyl-histidyl-leucyl-threonyl-proryl-glutamyl-glutamyl-lysine
T3 chain: VHLTPEEK
In the case of B1, the Specific activity (U/mg), 1 mM αF8P, purified enzyme is reported as 0 U/mg. B2 showed a Specific activity (U/mg), 1 mM αF8P, purified enzyme of 1.59 U/mg.

Target: T4, α-fructosyl-valyl-histidyl-leucyl-threonine
T4 chain: VHLT
Work on B1 yielded a Specific activity (U/mg), 1 mM αF4P, purified enzyme of 0 U/mg. Work on B2 yielded a Specific activity (U/mg), 1 mM αF4P, purified enzyme of 0.352 U/mg.

Target: T5, α-fructosyl-valyl-histidyl-leucyl-threonyl-proryl-glutamic acid
T5 chain: VHLTPE
With B3 the Specific activity (U/mg), 1 mM αF6P, purified enzyme was 0.0022 U/mg. With B4 the Specific activity (U/mg), 1 mM αF6P, purified enzyme was 0.795 U/mg, the αF6P oxidation activity (crude enzyme; αFVH oxidation activity = 100) (relative (αFVH = 100)) was 20.8 and the αF6P/αFV was 0.0377 and 0.0372. For the same protein, the αF6P/αFVH was 0.196 and 0.208. With B5 the αF6P oxidation activity (crude enzyme; αFVH oxidation activity = 100) (relative (αFVH = 100)) was 111, the αF6P oxidation activity ratio (crude enzyme; CFP-T7-H26 = 100) (relative (CFP-T7-H26 = 100)) was 102 and the αF6P/αFV was 0.111. The αF6P/αFVH was 1.11. With B6 the αF6P oxidation activity ratio (crude enzyme; CFP-T7-H20 = 100) (relative (CFP-T7-H20 = 100)) was 7. Work on B7 yielded a αF6P oxidation activity (crude enzyme; αFVH oxidation activity = 100) (relative (αFVH = 100)) of 134, a αF6P oxidation activity ratio (crude enzyme; CFP-T7-H26 = 100) (relative (CFP-T7-H26 = 100)) of 117 and a αF6P/αFV of 0.124. It also gave a αF6P/αFVH of 1.34. Work on B1 yielded a Specific activity (U/mg), 1 mM αF6P, purified enzyme of 0 U/mg, a αF6P oxidation activity (crude enzyme; αFVH oxidation activity = 100) (relative (αFVH = 100)) of 0 and a αF6P/αFV of 0. It also gave a αF6P/αFVH of 0. For B8, the Specific activity (U/mg), 1 mM αF6P, purified enzyme was 0.018 U/mg, the “fold of specific activity on αF6P against PnFX (Amadoriase 26/Comparative Example 3)” value was 2 times (Amadoriase 26/Comparative Example 3) to 1,940 times (Amadoriase 25/Comparative Example 2) and the αF6P/αFV was 0.00113. The αF6P/αFVH was 0.00132. For B9, the Specific activity (U/mg), 1 mM αF6P, purified enzyme was 0.85 U/mg, the αF6P oxidation activity (crude enzyme; αFVH oxidation activity = 100) (relative (αFVH = 100)) was 20.5 and the αF6P/αFV was 0.0377 and 0.0389. For the same protein, the αF6P/αFVH was 0.205 and 0.198. Work on B10 yielded a αF6P oxidation activity (crude enzyme; αFVH oxidation activity = 100) (relative (αFVH = 100)) of 84.3, a αF6P oxidation activity ratio (crude enzyme; CFP-T7-H20 = 100) (relative (CFP-T7-H20 = 100)) of 142 and a αF6P/αFV of 0.0773. It also gave a αF6P/αFVH of 0.843. With B2 the Specific activity (U/mg), 1 mM αF6P, purified enzyme was 4.27 U/mg, the “fold of specific activity on αF6P against FAOAo2 (Amadoriase 25/Comparative Example 2)” value was 2 times (Amadoriase 26/Comparative Example 3) to 1,940 times (Amadoriase 25/Comparative Example 2) and the αF6P oxidation activity ratio (crude enzyme; CFP-T7-H28 = 100) (relative (CFP-T7-H28 = 100)) was 206. For the same protein, the αF6P/αFV was 0.323 and the αF6P/αFVH was 2.25.

Target: T6, α-fructosyl-valyl-histidyl-leucyl-threonyl-proline
T6 chain: VHLTP
B1 was tested, and the Specific activity (U/mg), 1 mM αF5P, purified enzyme was 0 U/mg. Protein B2 has a Specific activity (U/mg), 1 mM αF5P, purified enzyme of 2.15 U/mg.

Target: T7, α-fructosyl-valyl-histidine
T7 chain: VH
For B4, the Specific activity (U/mg), 1 mM αFVH, purified enzyme was 4.05 U/mg. For B1, the Specific activity (U/mg), 1 mM αFVH, purified enzyme was 16.5 U/mg. B8 was tested, and the Specific activity (U/mg), 1 mM αFVH, purified enzyme was 1.62 U/mg. Protein B9 has a Specific activity (U/mg), 1 mM αFVH, purified enzyme of 4.28 U/mg. Work on B2 yielded a Specific activity (U/mg), 1 mM αFVH, purified enzyme of 1.9 U/mg.
